In patent US20180162952A1 (AbbVie / Abbott, published 2018):

Experiments:
[1] = molecular target: T1, hPTK7-His (soluble His-tagged human PTK7 extracellular domain) (human, UniProt Q13308 31-704); assay: Biacore (superscript B); column Affinity (nM)
T1 construct: also called PTK7-ECD-His; monomeric recombinant hPTK7-His (isoform a)
T1 sequence: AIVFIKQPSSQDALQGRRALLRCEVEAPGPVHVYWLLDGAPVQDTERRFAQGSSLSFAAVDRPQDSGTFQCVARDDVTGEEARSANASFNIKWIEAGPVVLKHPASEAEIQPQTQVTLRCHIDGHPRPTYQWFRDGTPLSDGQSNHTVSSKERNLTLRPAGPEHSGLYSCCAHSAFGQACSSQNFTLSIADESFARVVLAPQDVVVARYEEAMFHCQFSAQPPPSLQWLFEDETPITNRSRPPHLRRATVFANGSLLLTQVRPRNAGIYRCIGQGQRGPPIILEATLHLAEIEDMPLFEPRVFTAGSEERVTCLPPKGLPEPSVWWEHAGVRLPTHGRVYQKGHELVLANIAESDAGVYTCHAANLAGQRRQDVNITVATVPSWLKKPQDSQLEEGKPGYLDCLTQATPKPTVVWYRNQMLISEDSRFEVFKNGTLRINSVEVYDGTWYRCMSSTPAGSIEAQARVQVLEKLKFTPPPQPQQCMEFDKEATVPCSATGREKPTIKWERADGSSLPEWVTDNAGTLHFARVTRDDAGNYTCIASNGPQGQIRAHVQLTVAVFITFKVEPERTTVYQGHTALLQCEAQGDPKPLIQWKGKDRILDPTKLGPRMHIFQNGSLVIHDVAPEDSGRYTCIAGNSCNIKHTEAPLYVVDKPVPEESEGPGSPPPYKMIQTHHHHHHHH

[2] = molecular target: T2, PTK7 ECD Ig domains 6-7 Fc fusion (human); assay: ELISA, Ig-domain Fc fusion captured by anti-human IgG Fc
T2 chain: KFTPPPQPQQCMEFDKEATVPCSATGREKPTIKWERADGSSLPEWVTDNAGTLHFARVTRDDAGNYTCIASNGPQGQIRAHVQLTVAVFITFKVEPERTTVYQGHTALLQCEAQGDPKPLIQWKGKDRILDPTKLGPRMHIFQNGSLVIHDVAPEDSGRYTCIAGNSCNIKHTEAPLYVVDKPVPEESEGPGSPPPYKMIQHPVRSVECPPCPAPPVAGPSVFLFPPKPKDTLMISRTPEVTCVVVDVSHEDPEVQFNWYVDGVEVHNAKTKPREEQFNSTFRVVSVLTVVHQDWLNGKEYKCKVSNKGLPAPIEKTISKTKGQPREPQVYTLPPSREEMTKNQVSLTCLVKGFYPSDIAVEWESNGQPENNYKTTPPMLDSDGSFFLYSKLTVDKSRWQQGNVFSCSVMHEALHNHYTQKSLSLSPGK

[3] = molecular target: T3, PTK7 ECD Ig domains 1-4 Fc fusion (human); assay: as above
T3 chain: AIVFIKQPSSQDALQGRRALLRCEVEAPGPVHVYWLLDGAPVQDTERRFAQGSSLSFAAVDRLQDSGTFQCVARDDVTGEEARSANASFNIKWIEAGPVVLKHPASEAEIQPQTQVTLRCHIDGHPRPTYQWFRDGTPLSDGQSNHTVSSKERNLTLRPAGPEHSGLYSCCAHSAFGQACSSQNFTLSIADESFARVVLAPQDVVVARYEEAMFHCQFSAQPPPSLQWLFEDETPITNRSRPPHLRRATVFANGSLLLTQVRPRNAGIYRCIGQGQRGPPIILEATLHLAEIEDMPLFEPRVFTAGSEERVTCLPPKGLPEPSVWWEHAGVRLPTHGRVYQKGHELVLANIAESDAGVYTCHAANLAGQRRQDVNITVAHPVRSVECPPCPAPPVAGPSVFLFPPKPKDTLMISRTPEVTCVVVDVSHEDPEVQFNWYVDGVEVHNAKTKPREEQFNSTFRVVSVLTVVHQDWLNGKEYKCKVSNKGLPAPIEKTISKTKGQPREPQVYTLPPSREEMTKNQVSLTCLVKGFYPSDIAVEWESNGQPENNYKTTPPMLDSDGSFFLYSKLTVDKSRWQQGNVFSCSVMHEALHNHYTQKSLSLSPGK

[4] = molecular target: T4, PTK7 ECD Ig domains 1-5 Fc fusion (human); assay: as above
T4 chain: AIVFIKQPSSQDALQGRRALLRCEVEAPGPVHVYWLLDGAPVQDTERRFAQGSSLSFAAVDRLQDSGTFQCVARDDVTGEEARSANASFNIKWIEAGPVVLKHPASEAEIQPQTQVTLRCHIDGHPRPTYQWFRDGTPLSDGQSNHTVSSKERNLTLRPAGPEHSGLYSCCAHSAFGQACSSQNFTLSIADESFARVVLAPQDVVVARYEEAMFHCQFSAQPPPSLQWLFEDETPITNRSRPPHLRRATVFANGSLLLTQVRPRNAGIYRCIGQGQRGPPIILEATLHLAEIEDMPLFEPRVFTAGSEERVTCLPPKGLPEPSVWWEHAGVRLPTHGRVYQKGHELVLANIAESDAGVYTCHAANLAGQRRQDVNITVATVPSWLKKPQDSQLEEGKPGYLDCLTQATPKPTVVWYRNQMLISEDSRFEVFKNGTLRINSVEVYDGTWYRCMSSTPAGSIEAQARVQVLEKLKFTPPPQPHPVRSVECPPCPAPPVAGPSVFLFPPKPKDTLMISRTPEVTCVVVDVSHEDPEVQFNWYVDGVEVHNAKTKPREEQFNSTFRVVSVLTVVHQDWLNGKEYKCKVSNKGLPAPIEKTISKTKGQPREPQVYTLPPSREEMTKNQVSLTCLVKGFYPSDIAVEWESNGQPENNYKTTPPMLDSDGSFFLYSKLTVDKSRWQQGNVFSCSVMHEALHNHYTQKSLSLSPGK

Binder | Kd [1] [nM] | binding result [2] | binding result [3] | binding result [4]
SC6.2.35 (antibody, V domains shown, Murine monoclonal antibody from a hybridoma; also called H2.35; SC6.H2) VH: QVQMQQSGAELMKPGASVKLSCKATGYTFTGYWIEWVKQRPGHGLEWIGEILPGSGRSNSNEKFKGKATFTADTSSNTAYMQLSSLTTEDSAIYYCARGKLSWGQGTLVTVSA VL: DIVLTQSPASLAVSLGQRATISCRASESVDSFGNSFMHWYQQKPGQPPKLLIYAASNLGSGVPARFSGSGSGTDFSLNIHPVEEDDSAMYFCQQSKEVPRTFGGGSRLEIKR | < 0.1 | no binding | binds | binds
SC6.10.2 (antibody, V domains shown, Murine monoclonal antibody from a hybridoma; also called H10.2; H10) VH: QVQLQQSGAELVRPGVSVKISCKGSGYRFTDYPIHWVKQSHAKSLEWIGIISTYYGDVTNNPKFRGKATMTVDKSSTTAYMELARLTSEDSAIYYCARNDLFAYWGQGTLVTVSA VL: DIVMTQSQKFMSTSVGDRVNVTCKASQNVGTNVVWYQQKTGQSPKALIHSASYRYSGVPDRFTGSGSGTDFTLTLSNVQSEDLAEYFCQHYNSFPYTFGGGTKLEIKR | 5.6 | no binding | binds | binds
